# Experimental data taken from the nanobody polyreactivity screen of Harvey et al. (2022).
# Experiment: yeast display, Sf9 membrane polyspecificity reagent, FACS + sequencing; frameworks hold sequencing errors
# Method in brief: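 Sorting gates, low and high (top ~1%), were placed on anti-HA fluorescence to track expression and on streptavidin fluorescence to track reagent binding. A clone's polyreactivity label is taken from the gate it came out of. The reagent was 10% biotinylated, detergent-solubilized Sf9 membrane, applied for 1 hour at 4 °C to galactose-induced yeast display cells.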
row,Sequence,polyreactivity (PSR sort gate)
1,QVQLVESGGGLVQAGGSLRLSCAASGSIFVYYAMGWYRQAPGKERELVAAIDVSDGGTYYAESVKGRFTISRDNAKNTVYLQMNSLKPEVTAVYYCAADQGIDVPYIGYDYWGQGTQVTVSS,high polyreactivity
2,QVQLVESGGGLVQAGGSLRLSCAASGSIFVYYAMGWYRQAPGKERELVAGISRTGGRTYYADSVKGRFTISRDNAKITVYLQMNSLKPEDTAVYYCAAVSYYKSYGEFDYWGQGTQVTVSS,high polyreactivity
3,QVQLVESGGGLVQAGGSLRLSCAASGSIFVYYAMGWYRQAPGKERELVARIRIGGSTNYADSVKGRFTISRDNAKNTVYLQMNSLKPEDTAVYYCIKYSVLSRQRYSHPVNYDSWGQGTQVTVSS,high polyreactivity
4,QVQLVESGGGLVQAGGSLRLSCAASGSIFVYYVMGWYRQAPGKERELVAAISSGGRTYYADSVKGRFTISRDNAKNTVYLQMNSLKPEDTAVYYCAAVWYWTQDYDYWGQGTQVTVSS,low polyreactivity
5,QVQLVESGGGLVQAGGSLRLSCAASGSIFWAYTMGWYRQAPGKERELVAAISASGGSTYYADSVKGRFTISRDNAKNTVYFQMNSLKPEDTAVYYCAAVYDLGYYGPIWAIVLDDYWGQGTQVTVSS,low polyreactivity
6,QVQLVESGGGLVQAGGSLRLSCAASGSIFWFNAMGWYRQAPGKERELVAAISTGGGTNYADSVKGRFTISRDNAKNTLYLKMNSLKPEDTAVYYCATYKVSRYISYDYWGQGPQVTVSS,low polyreactivity
7,QVQLVESGGGLVQAGGSLRLSCAASGSIFWFYAMGWYRQAPGKERELVAAITSTGGTYYADSVKGRFTISRDNAKNTVYLQMNSLKPEDTAVYYCAADRIGGPGSYLYDYWGQGTQVTVSS,low polyreactivity
8,QVQLVESGGGLVQAGGSLRLSCAASGSIFWFYGMGWYRQAPGKERELVAAISWSGGNTYADSVKGRFTISRDNAKNTVYVQMNSLKPEDTAVYYCNAVVRAYYTSIWVPRYDYWGQGTQVTVSS,high polyreactivity
9,QVQLVESGGGLVQAGGSLRLSCAASGSIFWGNAMGWYRQAPGKERELVAAIRRGTSTYYADSVKGRFTISRDNAKNTVYVQMNSLKPEDTAVYYCAASPFRYVYHFDYWGQGTQVTVSS,high polyreactivity
10,QVQLVESGGGLVQAGGSLRLSCAASGSIFWGYAMGWNRQAPRKEREMVATITYGGDSTYYADSVKGRFTISRDNAKNTVYLQMNSLKPEDTAVYYCNVGVEPYDYVYWGQGTQVTVSS,low polyreactivity
11,QVQLVESGGGLVQAGGSLRLSCAASGSIFWGYAMGWYRQAPGKERELVAVISRGGSTYYADSVKGRFTISRDNAKNTVYLQMNSLKPEDTAVYYCADSSSWFYSPEYDYWGQGTQVTVSS,low polyreactivity
12,QVQLVESGGGLVQAGGSLRLSCAASGSIFWGYDMGWYRQAPGKERELVASISYSGGSTSYADSVKGRFTISRDNAKNTVYLQMNSLKPEDTAVYYCAADEGGFWWTYPYDSWGQGTQVTVSS,low polyreactivity
13,QVQLVESGGGLVQAGGSLRLSCAASGSIFWKNVMGWYRHAPGKERELVAGISQNGGSTTYADSVKGRFTISRDNAKNTVYLQMNSLKPEDTAVYYCAAKRYGPFKYGYWGQGTQVTVSS,high polyreactivity
14,QVQLVESGGGLVQAGGSLRLSCAASGSIFWLYAMGWYRQAPGKERELVAAISWSGTSTNYADSVKGRFTISRDNAKNTVYLQMNSLKPEDTAVYYCAAKWHVRGRGARYRYDYDYWGQGTQVTVSS,low polyreactivity
15,QVQLVESGGGLVQAGGSLRLSCAASGSIFWNNAMGWYRQAPGKERELVAGISSAGSTNYADSVKGRFTISRDNAKNTVYLQMNILKPEDTAVYYCAAVYYGGFSDYDYWGQGTQVTVSS,low polyreactivity
16,QVQLVESGGGLVQAGGSLRLSCAASGSIFWPNAMGWYRQAPGKERELVAAISWGTGSTYYADSVKGRFTISRDNAKNTVYLQMNSLKPEDTAVYYCAADGAYLDPYYDYWGQGTQVTVLS,low polyreactivity
17,QVQLVESGGGLVQAGGSLRLSCAASGSIFWPYAMGWYRQAPGKDRELVATITWTGGSTYYADSVKGRFTISRDNAKNTVYLQMNSLKPEDTAVYYCAAAGYYGYGYDYWGQGTQVTVSS,low polyreactivity
18,QVQLVESGGGLVQAGGSLRLSCAASGSIFWPYAMGWYRQAPGKERELVAAITWSGSSTYYADSVKGRFTISRDNAKNTVYLQMKSLKPEDTAVYYCAKRGWGIYDYWGQGTQVTVSS,low polyreactivity
19,QVQLVESGGGLVQAGGSLRLSCAASGSIFWPYAMGWYRQAPGKERELVAGISRSGGITYYADSVKGRFTISRDNAKNTVYLQMNSLKPEDTAVYYCARYQEWRQEYDYWGQGTQVTVSS,high polyreactivity
20,QVQLVESGGGLVQAGGSLRLSCAASGSIFWRNAMGWYRQAPGKERELVAAITSGGTTNYADSVKGRFTISRDNAKNTVYLQMISLIPEDTAVYYCATGASYLRRYDHPHSDVDYWGQGTQVTVSS,low polyreactivity
21,QVQLVESGGGLVQAGGSLRLSCAASGSIFWSNAMGWYRPATGKERELVAAISSGGSTYADSVKGRFTISRDNAKNTVYLQMNSLKPVDTAVYYCNADVLYGDYYRGGYWGQGTQVTVSS,low polyreactivity
22,QVQLVESGGGLVQAGGSLRLSCAASGSIFWSNAMGWYRQAPGKEREFVAAITWSGDNTYYADSVKGRFTISRDNAKNTVYLQMNSLKPEDTAVYYCAASGDYYWDEGDYWGQGTQVTVSS,low polyreactivity

row,Sequence,polyreactivity (PSR sort gate)
1,QVQLVESGGGLVQAGGSLRLSCAASGSIFWSNAMGWYRQAPGKEREFVATITNGTTTNYADSVKGRFTISRDNAKNTVYLQMNSLKPEDTAVYYCAVTGVYVKYDYWGQGTQVTVSS,low polyreactivity
2,QVQLVESGGGLVQAGGSLRLSCAASGSIFWTNAMGWYRQAPGKERELVAAITSGGNTNYADSVKGRFTISRDNAKNTVYLQMNSLKPEDTAVYYCAARYGRGWRRTYTQYDSWGQGTQVTVSS,low polyreactivity
3,QVQLVESGGGLVQAGGSLRLSCAASGSIFWTYAMGWYRQAPGKERELVAGIRWSGGTTYADSVKGRFTISRDNAKNTVYLQMNSLKPEDTAVYYCNHYLSTYHGTFTYGYWGQGTQVTVSS,low polyreactivity
4,QVQLVESGGGLVQAGGSLRLSCAASGSIFWVYAMGWSRQAPGKERELVAAISNSGSTNYADSVKGRFTISRDNAKNTVYLQMNSLKPEDTAVYYCAKDSLVDHVGGYDYWGQGTQVTVSS,low polyreactivity
5,QVQLVESGGGLVQAGGSLRLSCAASGSIFWVYAMGWYRPAPGKERELVAGISSGGSTNYADSVKGRCTISRDTAKKTVYLQMNSLKPEDTAVYYCAAVIRTVRERYGYWGQGTQVTVSS,high polyreactivity
6,QVQLVESGGGLVQAGGSLRLSCAASGSIFWVYVMGWYRQAPGKEREFVAAISSSGGRTYYADSVKGRFTISRDNAKNTVYLQMNRLKPEDTAVYYCAARRYWWYSASAMDYWGQGTQVTVSS,high polyreactivity
7,QVQLVESGGGLVQAGGSLRLSCAASGSIFWWNAMGWYRQAPGKERELVAAISYSGGSTYYADSVKGRFTISRDNAKKTVYLQRNSLKPEDTAVYYCAATKFRYYGYDYWGQGTQVTVSS,low polyreactivity
8,QVQLVESGGGLVQAGGSLRLSCAASGSIFWWNAMGWYRQAPGKERELVAGITKIGSSTYYADSVKGRFTISRDNAKNTVYLQMNSLKPEDTAVYYCNAYGPNIYSSRYDYWGQGTQVTVSS,low polyreactivity
9,QVQLVESGGGLVQAGGSLRLSCAASGSIFWWYAMGWYRQAPGKERELVAAIRWSGTTTFYADSLKGRFTISRDNAKNNVFLQMKSLKPEDTAVYYCNAEGGIWGVTSGYDYWGQGTQVTVSS,low polyreactivity
10,QVQLVESGGGLVQAGGSLRLSCAASGSIFWYNAMGWSRPAPGKERELVAAITWSGGSTYYADSVKGRFTISRDNAKNTVYLQMNSLKPEDTAVYYCATVPHYYYDYDYWGQGTQVTVSS,low polyreactivity
11,QVQLVESGGGLVQAGGSLRLSCAASGSIFWYNAMGWYRQAPGKESELVAAISWDGGSTYYADSVKGRFTISRDNAKNTVYLQMNSLKPEDTAVYYCNRVYIVWYTRYVVSGWYDYWGQGTEVTVSS,high polyreactivity
12,QVQLVESGGGLVQAGGSLRLSCAASGSIFWYYAMGWYRQAPGKERELVADITSTGGSTYYADSVKGRFTISRDNAKNTVYLQMNSLKPEDTAVYYCAADNTYSEEDYWGQGTQVNVSS,high polyreactivity
13,QVQLVESGGGLVQAGGSLRLSCAASGSIFWYYAMGWYRQAPGKERELVARITYSSGSTYYADSVKGRFTISRDNAKNTVYLQMNSLKPEDTAVFYCAVRLYSYLYNPFNYWGQGTQVTVSS,high polyreactivity
14,QVQLVESGGGLVQAGGSLRLSCAASGSIFWYYAMGWYRQAPGKERELVATIRKRSGSTYYADSVKGRFTISRDNAKNTVYLQMNSLKPEDTAVYYCAADYTAYGYDYWGQGTQVTVSS,low polyreactivity
15,QVQLVESGGGLVQAGGSLRLSCAASGSIFWYYTMGWYRQAPGKERELVATITRSGSRTYYADSVKGRFTISRDNAKNTVYLQMNSLNPEDTAVYYCAKDFGRWTYDYWGQATQVTVSS,low polyreactivity
16,QVQLVESGGGLVQAGGSLRLSCAASGSIFYAYAMGWYIQAPGKERELVAGINTRGGSTYYADSVKGRFTISRDNAKNTVYLQMNSLKPEDTAVYYCAKGTAPIPYRGRVGTSKSDYWGQGTQVTVSS,low polyreactivity
17,QVQLVESGGGLVQAGGSLRLSCAASGSIFYAYTMGWYRQAPGKERELVARITQSDDGTYYADSVKGRFTISRDNAKNTVYLQMNSLKPEDTAVYYCAVVFWQLAHRYDYWGQGTQVTVSS,low polyreactivity
18,QVQLVESGGGLVQAGGSLRLSCAASGSIFYENAMGWYRQAPGKERELVAAISRSGGSTYYADSVKGRFTISRDNAKNTVYLQMNSLKPEDTAVYYCAADVYVFIGDYWGQGTQVTVSS,low polyreactivity
19,QVQLVESGGGLVQAGGSLRLSCAASGSIFYENNMGWYRQAPGKEREFVAAISRSGGSTYYADSVKRRFTISRDNAKNTVYLQLNSLKPEDTAVYYCAARSRPGYAVYYWGQGTQVTVSS,high polyreactivity
20,QVQLVESGGGLVQAGGSLRLSCAASGSIFYENTMGWYRQAPGKEREFVAAISRSGGSTYYADSEKGRYTISRDNAKNTVYLQRNSLKPEDTAVYYCAAKSRRYHHEYYYWGQGTQVTVSS,high polyreactivity
21,QVQLVESGGGLVQAGGSLRLSCAASGSIFYENVMGWYRQAPGKERELVAGISRSGGRTYYADSVKGRFTISRDNAKNTVYLQMNSLIPEDTAVYYCNAARVYLSEWGQGTQVTVSS,high polyreactivity
